Test [1] deals with K63-linked diubiquitin (Boston Biochem) (human) (UniProt P0CG48). Nature of the test: western blot, IgG 1 µg/mL, two-fold dilutions of K63-linked diubiquitin 1 µg to 16 ng. A general note: Immunoblotting shows a protein as a band on a membrane.
The target in test [2] is K11 polyubiquitin linkages in 293T cell lysates (human) (UniProt P0CG48). Nature of the test: IP from 293T lysate (empty vector), 7 M urea, mass spec AQUA; input 1085 pmol.
For test [3], the target named is K48 polyubiquitin linkages in 293T cell lysates (human) (UniProt P0CG48). Nature of the test: IP from lysate of 293T cells over-expressing LUBAC, 7 M urea, mass spec AQUA; input 12420 pmol.

For Apu3.A8 anti-K63 IgG (antibody), the limit of detection in test [1] stood at 62 ng.
As to “isotype control IgG (unrelated human kappa IgG1 antibody)”, the pmol of ubiquitin linkage in the immunoprecipitate in test [2] came to 0 pmol; in test [3] it was 1 pmol.

The record behind these values is patent US20130058955A1.
